Results on 7 substances are retold here after paper doi:10.1101/718155.

The target in test [1] is S100P. In words: FP.
The target of test [2] is S100A2. In words: FP.
Test [3] deals with S100A1. Kind of test: FP.
Test [4] deals with S100A4. Kind of test: ITC.
Test [5] has as its target S100A4. In words: FP.
For test [6], the target named is S100A6. Kind of test: FP.
Test [7] deals with S100A11. In words: FP.
In test [8] the target is S100A5. In words: FP.
For test [9], the target named is S100A3. In words: FP.
The target in test [10] is C-ERMAD (516-560 and 516-586) peptide (UniProt P15311). Kind of test: FP.
For test [11], the target named is S100A15. In words: FP.
For test [12], the target named is S100A7. Kind of test: FP.
The target in test [13] is S100G. In words: FP.
The target in test [14] is S100A14. In words: FP.

pKd: −log10 of the molar value.

Sequence of p53 (1-60; 17-53) peptide (P04637 1-60): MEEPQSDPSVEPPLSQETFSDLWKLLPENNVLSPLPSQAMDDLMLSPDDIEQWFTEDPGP
Sequence of C-ERMAD (516-560 and 516-586) peptide (from UniProt P15311 516-586) (P15311 516-586): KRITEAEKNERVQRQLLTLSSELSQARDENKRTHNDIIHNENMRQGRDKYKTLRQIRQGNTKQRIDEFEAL
Sequence of C-ERMAD (516-560 and 516-586) peptide (UniProt P15311) (P15311 516-586): as above

As a reminder, the pKd is the Kd on a negative log10 scale, so that one unit is a factor of ten. The low end stands for a high Kd, the high end for a low Kd. Take MK2: the pKd is 5.57 in [1], 5.35 in test [2] and 4.82 in [3].

Consider “C-ERMAD (516-560 and 516-586) peptide (from UniProt P15311 516-586)”, for which the pKd is 4.46 in test [4], 5.27 in [2] and 5.21 in test [5].

Regarding “p53 (1-60; 17-53) peptide (from UniProt P04637 1-60)”, the pKd is 5.28 in test [2]; 5.66 in test [6]; 4.92 in [7]; 5.68 in test [5]; 4.17 in test [8]; 5.11 in [9].

On to MNK1, for which the pKd in [1] was 5.60; in test [2], 4.74; in [6], 5.17; in test [5], 4.62.

In turn, S100A2 showed a pKd in test [10] of 4.82.

As to FOR20, the pKd in test [1] is 5.92; in [11], 4.77; in test [2], 6.57; in test [6], 8.15; in [5] it was 5.70; in [8], 5.72. The pKd is 6.30 in test [3]; 5.23 in test [12]; 5.42 in [13]; 4.20 in test [14]; 4.54 in [9].

S100A4 showed a pKd in test [10] of 4.96.
